Legend:
[1] = system: murine melanoma B16F10 cells; test: Treatment with Gal-pHLIP in B16F10 tumor model in A3galt2 knockout mice; assay type: in vivo, mouse; details: B16F10 tumors in A3galt2 knockout mice immunized with HSA-Gal/CFA and HSA-Gal/IFA; IP 80 μM 450 μl each day for 10 days; tumors weighed day 12; versus untreated control; statistically significant
Procedure: A3galt2 knockout female and male mice were immunized by IP injection of Galα1-3Galβ-4Glc-HSA (HSA-Gal) (Dextra Laboratories) (day 1) (HSA is human serum albumin), at a concentration of 0.2 mg/ml emulsified at a ratio 1:1 with CFA. On days 14 and 21 after the first immunization, mice were boosted by IP injection of 200 μl of HSA-Gal (0.2 mg/ml) emulsified at a ratio 1:1 with IFA.
A3galt2 knockout female and male mice immunized with HSA-Gal and CFA/IFA adjuvants received a single SQ injection of 10^6 murine melanoma B16F10 cells (ATCC CRL-6475) in the right flank on day 1. On day 2, mice were randomized into groups and tri-Gal-pHLIP was administered via IP injections each day (80 μM 450 μl per injection). […] All mice in the control and treated groups were euthanized on day 12, tumors were collected and weighed.
The Kolmogorov-Smirnov two-tailed non-parametric test was used to compare two samples at a significance level of 0.05.

[2] = pH-dependent interaction of HA-pHLIP agents with POPC liposomes (tryptophan fluorescence); assay type: physicochemical; details: 7 μM agent, 25°C; for cooperativity (n) of state II to state III transition / mid-point (pK) of state II to state III transition: pH-dependent insertion into POPC liposome bilayer, shift of fluorescence maximum vs pH, Henderson-Hasselbalch fit; for cooperativity (n) of state II to state III transition / mid-point (pK) of state II to state III transition / λmax in state III / λmax in state II: 1.4 mM POPC; for λmax in state I / λmax in state III / λmax in state II: position of tryptophan fluorescence maximum, excitation 295 nm; for λmax in state I: HA-pHLIP in solution at pH8; for λmax in state III: HA-pHLIP with POPC liposomes at pH3 (membrane-inserted); for λmax in state II: HA-pHLIP with POPC liposomes at pH8 (membrane-adsorbed)
[3] = system: murine mammary carcinoma 4T1 cells; test: Treatment with HA-pHLIP agents in 4T1 tumor mouse model; assay type: in vivo; details: 4T1 flank tumors in BALB/c mice immunized with KLH-HA/CFA and KLH-HA/IFA; IP 40–60 µM 400 μl every second day from day 3 or 4; tumors weighed typically days 17–19; mean of control group = 100%
anti-HA antibodies = details: mouse, in vivo, ip
[4] = system: murine melanoma B16F10 cells; details: B16F10 flank tumors in BALB/c mice immunized with 2 injections of KLH-HA/AddaVax; IP 40 μM 400 μl on days 1, 2 and 3 from about 100 mm^3; tumors weighed day 7; mean of control group = 100%

## Galα(1,3)Galβ(1,4)Glc-Peg4-NHC(O)-AADDQNPWRAYLDLLFPTDTLLLDLLWA-OH [Gal-pHLIP]
[1]
  reduction of tumor growth: 66%

## AK[3xHA-Peg12]QNDDQNK[3xHA-Peg12]PWRAYLDLLFPTDTLLLDLLWA [2(3xHA-Peg12)-pHLIP3]
[2]
  cooperativity (n) of state II to state III transition: 1.9
  mid-point (pK) of state II to state III transition: 4.8
  λmax in state I: 351 nm
  λmax in state III: 337 nm
  λmax in state II: 351 nm
[3]
  Norm. tumor weight: 61.6%

## (Az)GGKGGGK[HA-Peg12]PWRAYLELLFPTETLLLELLLA [HA-Peg12-pHLIP4, v2, single HA-Peg12 on second Lys of pHLIP4]
[2]
  cooperativity (n) of state II to state III transition: 2.2
  mid-point (pK) of state II to state III transition: 6.8
  λmax in state I: 348 nm
  λmax in state III: 337 nm
  λmax in state II: 343 nm

## (Az)GGK[HA-Peg12]GGGKPWRAYLELLFPTETLLLELLLA [HA-Peg12-pHLIP4, v1, single HA-Peg12 on first Lys of pHLIP4]
[2]
  cooperativity (n) of state II to state III transition: 1.7
  mid-point (pK) of state II to state III transition: 6.4
  λmax in state I: 347 nm
  λmax in state III: 337 nm
  λmax in state II: 343 nm

## AK[HA-Peg12]QNDDQNK[HA-Peg12]PWRAYLDLLFPTDTLLLDLLWA [2(HA-Peg12)-pHLIP3]
[2]
  cooperativity (n) of state II to state III transition: 1.9
  mid-point (pK) of state II to state III transition: 4.8
  λmax in state I: 351 nm
  λmax in state III: 337 nm
  λmax in state II: 351 nm
[3]
  Norm. tumor weight: 61.3%

## K(N3)[HA-Peg12]GGGGGK(N3)[HA-Peg12]PWRAYLELLFPTETLLLELLLA [2(HA-Peg12)-pHLIP5]
anti-HA antibodies
  amount of anti-HA antibody in serum after treatment: dropped significantly (close to background level)
[2]
  cooperativity (n) of state II to state III transition: 0.9
  mid-point (pK) of state II to state III transition: 6.2
  λmax in state I: 347 nm
  λmax in state III: 340 nm
  λmax in state II: 346 nm
[4]
  Norm. tumor weight: 56.5%

## (Az)GGK[HA-Peg24]GGGK[HA-Peg24]PWRAYLELLFPTETLLLELLLA [2(HA-Peg24)-pHLIP4]
[2]
  cooperativity (n) of state II to state III transition: 0.7
  mid-point (pK) of state II to state III transition: 5.8
  λmax in state I: 347 nm
  λmax in state III: 336 nm
  λmax in state II: 347 nm

## (Az)GGK[HA-Peg12]GGGK[HA-Peg12]PWRAYLELLFPTETLLLELLLA [2(HA-Peg12)-pHLIP4]
[2]
  cooperativity (n) of state II to state III transition: 1.3
  mid-point (pK) of state II to state III transition: 5.8
  λmax in state I: 347 nm
  λmax in state III: 337 nm
  λmax in state II: 344 nm
[3]
  Norm. tumor weight: 55.3%

## AK[HA-Peg24]QNDDQNK[HA-Peg24]PWRAYLDLLFPTDTLLLDLLWA [2(HA-Peg24)-pHLIP3]
[2]
  cooperativity (n) of state II to state III transition: 0.9
  mid-point (pK) of state II to state III transition: 4.6
  λmax in state I: 351 nm
  λmax in state III: 337 nm
  λmax in state II: 350 nm
[3]
  Norm. tumor weight: 62.9%

Source: PMC9853002, “Tumor treatment by pHLIP-targeted antigen delivery” (Frontiers in Bioengineering and Biotechnology, 2023)
